Data: patent publication US12247058 (Bristol-Myers Squibb, dated 2025)
Non-standard residues stand in square brackets, D forms with d. Phe(4-Ac) = CC(=O)c1ccc(C[C@H](N)C(=O)O)cc1

T1: human β-klotho with a C-terminal FLAG tag, stably expressed in a clonal HEK-293 cell line (human, UniProt Q86Z14 1-1044)
T1 sequence: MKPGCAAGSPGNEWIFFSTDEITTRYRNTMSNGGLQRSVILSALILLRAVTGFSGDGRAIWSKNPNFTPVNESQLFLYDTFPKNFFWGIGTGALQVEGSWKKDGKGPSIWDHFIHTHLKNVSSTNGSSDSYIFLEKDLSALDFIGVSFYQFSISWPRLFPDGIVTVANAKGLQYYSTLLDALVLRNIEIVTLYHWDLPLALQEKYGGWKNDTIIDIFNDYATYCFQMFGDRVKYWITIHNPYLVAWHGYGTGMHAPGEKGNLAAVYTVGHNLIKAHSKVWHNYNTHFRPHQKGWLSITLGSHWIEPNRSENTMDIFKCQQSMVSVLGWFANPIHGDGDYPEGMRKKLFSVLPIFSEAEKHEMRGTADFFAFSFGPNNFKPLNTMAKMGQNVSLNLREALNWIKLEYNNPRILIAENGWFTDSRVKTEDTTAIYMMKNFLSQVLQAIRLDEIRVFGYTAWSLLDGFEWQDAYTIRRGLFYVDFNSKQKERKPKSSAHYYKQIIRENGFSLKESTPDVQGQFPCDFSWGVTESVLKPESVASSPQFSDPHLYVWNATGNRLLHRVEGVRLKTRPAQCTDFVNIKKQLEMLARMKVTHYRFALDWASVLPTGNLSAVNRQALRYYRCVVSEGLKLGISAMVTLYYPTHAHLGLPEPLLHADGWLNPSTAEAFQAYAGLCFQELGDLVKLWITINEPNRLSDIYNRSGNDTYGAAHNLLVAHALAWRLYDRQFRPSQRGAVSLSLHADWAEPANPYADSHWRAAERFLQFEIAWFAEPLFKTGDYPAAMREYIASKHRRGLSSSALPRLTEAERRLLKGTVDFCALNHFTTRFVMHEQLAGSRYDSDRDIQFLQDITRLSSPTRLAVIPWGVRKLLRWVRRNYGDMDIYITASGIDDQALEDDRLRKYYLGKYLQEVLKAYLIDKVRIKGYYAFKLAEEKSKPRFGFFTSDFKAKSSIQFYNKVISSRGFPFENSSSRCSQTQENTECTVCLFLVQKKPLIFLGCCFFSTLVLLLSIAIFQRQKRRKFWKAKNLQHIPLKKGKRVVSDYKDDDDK


Target: T1, human β-klotho with a C-terminal FLAG …
Experiment: cell-based or functional assay

| EC50 in the pERK assay [nM] | Binder |
| --- | --- |
| 30 | Pegylated Compound 19 (ligand) MHPIPDSSPLLQFGGQVRQRYLYTDDAQQTEAHLEIREDGTVGGAADQSPESLLQLKALKPGVIQILGVKTSRFLCQRPDGALYGSLHFDPEACSFRELLLEDGYNVY[Phe(4-Ac)](PEG about 30 kDa)SEAHGLPLHLGSGPHRDPAPRGPARFLPLPGLPPAPPEPPGILAPQPPDVGSSDPLSMVEPSQGRSPSYAS |
| 30 | Pegylated Compound 11 (ligand) MHPIPDSSPLLQFGGQVRQRYLYTDDAQQTEAHLEIREDGTVGGAADQSPESLLQLKALKPGVIQILGVKTSRFLCQRPDGALYGSLHFDPEACSFRELLLEDGYNVY[Phe(4-Ac)](PEG about 30 kDa)SEAHGLPLHLGSGHRDPAPRGPARFLPLPGLPPAPPEPPGILAPQPPDVGSSDPLSMVEPSQGRSPSYAS |
| 24 | Pegylated Compound 5 (ligand) MHPIPDSSPLLQFGGQVRQRYLYTDDAQQTEAHLEIREDGTVGGAADQSPESLLQLKALKPGVIQILGVKTSRFLCQRPDGALYGSLHFDPEACSFRELLLEDGYNVY[Phe(4-Ac)](PEG 30 kDa)SEAHGLPLHLPGDKSRDPAPRGPARFLPLPGLPPAPPEPPGILAPQPPDVGSSDPLSMVEPSQGRSPSYAS |
| 20 | Pegylated Compound 6 (ligand) MHPIPDSSPLLQFGGQVRQRYLYTDDAQQTEAHLEIREDGTVGGAADQSPESLLQLKALKPGVIQILGVKTSRFLCQRPDGALYGSLHFDPEACSFRELLLEDGYNVY[Phe(4-Ac)](PEG 30 kDa)SEAHGLPLHLPGHKSRDPAPRGPARFLPLPGLPPAPPEPPGILAPQPPDVGSSDPLSMVEPSQGRSPSYAS |
| 28 | Pegylated Compound 10 (ligand) MHPIPDSSPLLQFGGQVRQRYLYTDDAQQTEAHLEIREDGTVGGAADQSPESLLQLKALKPGVIQILGVKTSRFLCQRPDGALYGSLHFDPEACSFRELLLEDGYNVY[Phe(4-Ac)](PEG about 30 kDa)SEAHGLPLHLGSGGPARFLPLPGLPPAPPEPPGILAPQPPDVGSSDPLSMVEPSQGRSPSYAS |
| 39 | Pegylated Compound 12 (ligand) MHPIPDSSPLLQFGGQVRQRYLYTDDAQQTEAHLEIREDGTVGGAADQSPESLLQLKALKPGVIQILGVKTSRFLCQRPDGALYGSLHFDPEACSFRELLLEDGYNVY[Phe(4-Ac)](PEG about 30 kDa)SEAHGLPLHLPHHSGRDPAPRGPARFLPLPGLPPAPPEPPGILAPQPPDVGSSDPLSMVEPSQGRSPSYAS |

Target: T1, human β-klotho with a C-terminal FLAG …
Experiment: cell-based or functional assay
Remark: another data set of the same source

| pERK EC50 [nM] | Binder |
| --- | --- |
| 21.9 | Compound 10 (ligand) MHPIPDSSPLLQFGGQVRQRYLYTDDAQQTEAHLEIREDGTVGGAADQSPESLLQLKALKPGVIQILGVKTSRFLCQRPDGALYGSLHFDPEACSFRELLLEDGYNVYQSEAHGLPLHLGSGGPARFLPLPGLPPAPPEPPGILAPQPPDVGSSDPLSMVEPSQGRSPSYAS |
| 28 | Compound 3 (ligand) MHPIPDSSPLLQFGGQVRQRYLYTDDAQQTEAHLEIREDGTVGGAADQSPESLLQLKALKPGVIQILGVKTSRFLCQRPDGALYGSLHFDPEACSFRELLLEDGYNVYQSEAHGLPLHLPGNKSPHRDPAPRGPARFLPLPGLPPAPPEPPGILAPQPPDVGSSDPLSMVEPSQGRSPSYAS |
| 28.4 | Compound 7 (ligand) MHPIPDSSPLLQFGGQVRQRYLYTDDAQQTEAHLEIREDGTVGGAADQSPESLLQLKALKPGVIQILGVKTSRFLCQRPDGALYGSLHFDPEACSFRELLLEDGYNVYQSEAHGLPLHLPGDKSPHRDPAPRGPARFLPLPGLPPAPPEPPGILAPQPPDVGSSDPLSMVEPSQGRSPSYAS |
| 4.6 | Compound 2 (ligand) MHPIPDSSPLLQFGGQVRQRYLYTDDAQQTEAHLEIREDGTVGGAADQSPESLLQLKALKPGVIQILGVKTSRFLCQRPDGALYGSLHFDPEACSFRELLLEDGYNVYQSEAHGLPLHLGSGRGPARFLPLPGLPPAPPEPPGILAPQPPDVGSSDPLSMVEPSQGRSPSYAS |
| 30 | Compound 23 (ligand) MHPIPDSSPLLQFGGQVRQRYLYTDDAQQTEAHLEIREDGTVGGAADQSPESLLQLKALKPGVIQILGVKTSRFLCQRPDGALYGSLHFDPEACSFRELLLEDGYNVYQSEAHGLPLHLGGGPARFLPLPGLPPAPPEPPGILAPQPPDVGSSDPLSMVEPSQGRSPSYAS |
| 4.1 | Compound 22 (ligand) MHPIPDSSPLLQFGGQVRQRYLYTDDAQQTEAHLEIREDGTVGGAADQSPESLLQLKALKPGVIQILGVKTSRFLCQRPDGALYGSLHFDPEACSFRELLLEDGYNVYQSEAHGLPLHLSGGPAPRGPARFLPLPGLPPAPPEPPGILAPQPPDVGSSDPLSMVEPSQGRSPSYAS |
| 3.9 | Compound 20 (ligand) MHPIPDSSPLLQFGGQVRQRYLYTDDAQQTEAHLEIREDGTVGGAADQSPESLLQLKALKPGVIQILGVKTSRFLCQRPDGALYGSLHFDPEACSFRELLLEDGYNVYQSEAHGLPLHLGGHRDPAPRGPARFLPLPGLPPAPPEPPGILAPQPPDVGSSDPLSMVEPSQGRSPSYAS |
| 28.2 | Compound 11 (ligand) MHPIPDSSPLLQFGGQVRQRYLYTDDAQQTEAHLEIREDGTVGGAADQSPESLLQLKALKPGVIQILGVKTSRFLCQRPDGALYGSLHFDPEACSFRELLLEDGYNVYQSEAHGLPLHLGSGHRDPAPRGPARFLPLPGLPPAPPEPPGILAPQPPDVGSSDPLSMVEPSQGRSPSYAS |
| 5.1 | Compound 19 (ligand) MHPIPDSSPLLQFGGQVRQRYLYTDDAQQTEAHLEIREDGTVGGAADQSPESLLQLKALKPGVIQILGVKTSRFLCQRPDGALYGSLHFDPEACSFRELLLEDGYNVYQSEAHGLPLHLGSGPHRDPAPRGPARFLPLPGLPPAPPEPPGILAPQPPDVGSSDPLSMVEPSQGRSPSYAS |
| 31.9 | Compound 12 (ligand) MHPIPDSSPLLQFGGQVRQRYLYTDDAQQTEAHLEIREDGTVGGAADQSPESLLQLKALKPGVIQILGVKTSRFLCQRPDGALYGSLHFDPEACSFRELLLEDGYNVYQSEAHGLPLHLPHHSGRDPAPRGPARFLPLPGLPPAPPEPPGILAPQPPDVGSSDPLSMVEPSQGRSPSYAS |
| 69.2 | Compound 5 (ligand) MHPIPDSSPLLQFGGQVRQRYLYTDDAQQTEAHLEIREDGTVGGAADQSPESLLQLKALKPGVIQILGVKTSRFLCQRPDGALYGSLHFDPEACSFRELLLEDGYNVYQSEAHGLPLHLPGDKSRDPAPRGPARFLPLPGLPPAPPEPPGILAPQPPDVGSSDPLSMVEPSQGRSPSYAS |
| 39.1 | Compound 6 (ligand) MHPIPDSSPLLQFGGQVRQRYLYTDDAQQTEAHLEIREDGTVGGAADQSPESLLQLKALKPGVIQILGVKTSRFLCQRPDGALYGSLHFDPEACSFRELLLEDGYNVYQSEAHGLPLHLPGHKSRDPAPRGPARFLPLPGLPPAPPEPPGILAPQPPDVGSSDPLSMVEPSQGRSPSYAS |
